Assays:
[1] = molecular target: purified human PSA (shorter isoform), mCherry-Strep-tag II removed by thrombin (human, UniProt P55786-1 45-919); test: cryo-EM structure
cryo-EM structure = molecular target: the molecule itself; test: cryo-EM structure

Chain of purified human PSA (shorter isoform), mCherry-Strep-tag II removed by thrombin (P55786 45-919): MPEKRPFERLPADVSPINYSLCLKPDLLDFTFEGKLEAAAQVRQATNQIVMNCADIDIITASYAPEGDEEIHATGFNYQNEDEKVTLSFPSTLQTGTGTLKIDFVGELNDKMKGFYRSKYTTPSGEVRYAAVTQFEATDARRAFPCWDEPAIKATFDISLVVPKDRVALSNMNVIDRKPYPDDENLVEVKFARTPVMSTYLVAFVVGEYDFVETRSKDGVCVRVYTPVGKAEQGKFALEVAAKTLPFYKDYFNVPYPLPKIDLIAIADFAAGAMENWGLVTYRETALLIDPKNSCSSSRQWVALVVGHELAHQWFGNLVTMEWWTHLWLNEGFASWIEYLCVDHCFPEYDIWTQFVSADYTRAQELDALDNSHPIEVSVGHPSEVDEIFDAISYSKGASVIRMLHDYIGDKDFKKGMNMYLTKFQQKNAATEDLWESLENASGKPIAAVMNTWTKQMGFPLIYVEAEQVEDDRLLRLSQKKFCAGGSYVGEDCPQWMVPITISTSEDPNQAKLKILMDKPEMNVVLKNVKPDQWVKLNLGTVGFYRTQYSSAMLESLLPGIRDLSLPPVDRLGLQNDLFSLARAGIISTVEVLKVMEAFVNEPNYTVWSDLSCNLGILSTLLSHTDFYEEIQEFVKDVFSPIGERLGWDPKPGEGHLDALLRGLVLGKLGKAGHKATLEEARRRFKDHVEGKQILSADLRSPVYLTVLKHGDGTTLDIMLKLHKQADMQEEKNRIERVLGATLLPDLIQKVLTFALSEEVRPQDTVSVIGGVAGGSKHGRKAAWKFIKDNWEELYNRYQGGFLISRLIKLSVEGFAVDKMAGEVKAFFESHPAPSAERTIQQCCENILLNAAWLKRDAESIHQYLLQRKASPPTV

B1: purified human SWELL1 homo-hexamer, tag removed by thrombin (cryo-EM sample) (natural protein)
chain: MIPVTELRYFADTQPAYRILKPWWDVFTDYISIVMLMIAVFGGTLQVTQDKMICLPCKWVTKDSCNDSFRGWAAPGPEPTYPNSTILPTPDTGPTGIKYDLDRHQYNYVDAVCYENRLHWFAKYFPYLVLLHTLIFLACSNFWFKFPRTSSKLEHFVSILLKCFDSPWTTRALSETVVEESDPKPAFSKMNGSMDKKSSTVSEDVEATVPMLQRTKSRIEQGIVDRSETGVLDKKEGEQAKALFEKVKKFRTHVEEGDIVYRLYMRQTIIKVIKFILIICYTVYYVHNIKFDVDCTVDIESLTGYRTYRCAHPLATLFKILASFYISLVIFYGLICMYTLWWMLRRSLKKYSFESIREESSYSDIPDVKNDFAFMLHLIDQYDPLYSKRFAVFLSEVSENKLRQLNLNNEWTLDKLRQRLTKNAQDKLELHLFMLSGIPDTVFDLVELEVLKLELIPDVTIPPSIAQLTGLKELWLYHTAAKIEAPALAFLRENLRALHIKFTDIKEIPLWIYSLKTLEELHLTGNLSAENNRYIVIDGLRELKRLKVLRLKSNLSKLPQVVTDVGVHLQKLSINNEGTKLIVLNSLKKMANLTELELIRCDLERIPHSIFSLHNLQEIDLKDNNLKTIEEIISFQHLHRLTCLKLWYNHIAYIPIQIGNLTNLERLYLNRNKIEKIPTQLFYCRKLRYLDLSHNNLTFLPADIGLLQNLQNLAITANRIETLPPELFQCRKLRALHLGNNVLQSLPSRVGELTNLTQIELRGNRLECLPVELGECPLLKRSGLVVEEDLFNTLPPEVKERLWRADKEQA
With B1 the binding result [1] was “binds” and the “stoichiometry N” value (cryo-EM structure) was 6.

— publication PMC12407707 (bioRxiv, 2025)
